Reference: patent publication US20140005119A1, “COMPOSITIONS AND METHODS FOR INHIBITING THE ACTIVITY OF P110a MUTANT PROTEINS” (Case Western Reserve University, priority 2012, published 2014)

Biological target: T1, cellular p110α-p85 interaction (Homo sapiens, UniProt P42336, E545K)
T1 construct: tag the endogenous WT or mutant p110α with 3×FLAG at their C termini in DLD1 cells; endogenous in cells; host or cells: DLD1 p110α E545K 3×FLAG knock-in cells
Experiment: Co-IP from treated cells, cellular p110α-p85 interaction
Type: cell-based
Description: FIG. 4(A-F) illustrate: (A) Schematic diagram of linear and stapled WT and mutant peptides derived from p110α (SEQ ID NOs: 5, 6, 7 and 8). (B) Immunoblots of cell lysates immunoprecipitated with beads conjugated with anti-FLAG antibodies and then blotted with the indicated antibodies. Linear or stapled WT and mutant peptide were added into culture medium of the p110α E545K 3×FLAG KI cells for 16 hr. (C) Immunoblots of cell lysates immunoprecipitated with anti-p110α antibodies and then blotted with the indicated antibodies. Vaco481 CRC cells were treated with the stapled mutant peptides at the indicated concentration. (D) Immunoblots of cell lysates blotted with the indicated antibodies. The indicated cell lines were treated with the stapled mutant peptide. (E) Immunoblots of cell lysates blotted with the indicated antibodies. […]
For Co-immunoprecipitation (Co-IP), cells were harvested, washed with PBS, and then lysed in IP buffer (50 mMTris [pH 7.4], 150 mMNaCl, 5 mMEDTA [pH 8.0], 0.5% NP40, 1 mM PMSF, complete Protease Inhibitor Cocktail tablet [Roche]; supplemented with phosphatase inhibitors [1 mM Na3VO4, 20 mM NaF, 0.1 mM b-glycerophosphate, 20 mM sodium pyrophosphate] when necessary). […] Lysates were then cleared by centrifugation (14,000 rpm, 10 min) and protein concentration in supernatants was determined with a BCA protein assay kit (Pierce, Rockford, Ill.). […]

T1 sequence (P42336 whole entry E545K): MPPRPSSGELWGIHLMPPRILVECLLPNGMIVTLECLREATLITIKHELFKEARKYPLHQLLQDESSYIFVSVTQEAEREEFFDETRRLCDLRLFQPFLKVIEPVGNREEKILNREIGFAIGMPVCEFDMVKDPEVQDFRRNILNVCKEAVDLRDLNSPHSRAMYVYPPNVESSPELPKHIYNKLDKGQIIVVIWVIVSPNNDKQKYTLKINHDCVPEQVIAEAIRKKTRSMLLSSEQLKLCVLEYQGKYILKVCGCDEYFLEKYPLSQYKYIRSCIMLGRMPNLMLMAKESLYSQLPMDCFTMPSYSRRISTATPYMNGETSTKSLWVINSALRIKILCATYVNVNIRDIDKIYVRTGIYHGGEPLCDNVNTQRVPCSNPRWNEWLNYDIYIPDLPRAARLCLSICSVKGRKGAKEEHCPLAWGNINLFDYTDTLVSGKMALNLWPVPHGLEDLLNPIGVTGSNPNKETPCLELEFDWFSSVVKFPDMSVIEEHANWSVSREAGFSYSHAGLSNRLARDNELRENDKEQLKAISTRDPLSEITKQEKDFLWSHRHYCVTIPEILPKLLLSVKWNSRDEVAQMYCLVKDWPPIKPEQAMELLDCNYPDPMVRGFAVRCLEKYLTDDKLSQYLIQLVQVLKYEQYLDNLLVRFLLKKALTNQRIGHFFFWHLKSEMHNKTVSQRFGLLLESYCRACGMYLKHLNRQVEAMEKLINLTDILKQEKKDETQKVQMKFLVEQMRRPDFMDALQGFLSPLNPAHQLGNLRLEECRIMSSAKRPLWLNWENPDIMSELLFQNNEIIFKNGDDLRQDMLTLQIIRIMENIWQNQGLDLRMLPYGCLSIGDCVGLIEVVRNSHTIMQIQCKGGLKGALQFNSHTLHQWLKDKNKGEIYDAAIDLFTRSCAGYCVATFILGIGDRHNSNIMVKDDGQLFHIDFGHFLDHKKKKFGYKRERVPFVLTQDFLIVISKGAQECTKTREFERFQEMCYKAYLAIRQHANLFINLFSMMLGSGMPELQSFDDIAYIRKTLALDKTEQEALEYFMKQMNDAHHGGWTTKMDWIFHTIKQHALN
T1 sequence (P27986 whole entry partner): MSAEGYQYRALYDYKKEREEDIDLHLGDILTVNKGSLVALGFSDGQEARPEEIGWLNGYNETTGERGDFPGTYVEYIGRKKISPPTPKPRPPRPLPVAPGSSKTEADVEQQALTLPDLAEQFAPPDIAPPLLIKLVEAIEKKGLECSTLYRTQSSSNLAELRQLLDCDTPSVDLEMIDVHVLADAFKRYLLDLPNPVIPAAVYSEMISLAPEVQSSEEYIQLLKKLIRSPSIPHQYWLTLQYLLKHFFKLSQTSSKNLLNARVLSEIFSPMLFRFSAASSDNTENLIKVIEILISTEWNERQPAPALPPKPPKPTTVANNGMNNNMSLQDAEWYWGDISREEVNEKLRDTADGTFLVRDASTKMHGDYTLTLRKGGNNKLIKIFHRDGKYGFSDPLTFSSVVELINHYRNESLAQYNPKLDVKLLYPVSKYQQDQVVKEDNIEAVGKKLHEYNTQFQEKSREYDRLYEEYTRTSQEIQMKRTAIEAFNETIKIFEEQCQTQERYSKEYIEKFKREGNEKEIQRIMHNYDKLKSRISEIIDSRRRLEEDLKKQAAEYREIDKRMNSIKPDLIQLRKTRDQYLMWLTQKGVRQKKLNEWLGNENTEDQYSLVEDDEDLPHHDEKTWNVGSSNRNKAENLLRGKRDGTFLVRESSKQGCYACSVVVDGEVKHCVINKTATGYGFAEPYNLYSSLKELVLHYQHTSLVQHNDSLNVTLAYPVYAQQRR

Substance: H2N-SEITKQEK-D^549-FLW-S^553-HRHYC-COOH [stapled mutant peptide]
- cellular p110α-p85 interaction: did not interfere
